Measured values from patent US9359622B2, “Method for biotechnological production of dihydrochalcones” (Symrise AG, priority 2012, dated 2016).

Legend:
[1] = Activity measurements for determination of the temperature optimum for CHI; format: biochemical
From the text: (§1) For the purposes of the present invention especially preferred is the use of a chalcone isomerase, having one, several or all the following characteristics and/or a temperature and pH stability according to Tables 1-3:
(§2) A photometric determination allowed—for further investigation of the CHI activity—the reduction over time in the concentration of naringenin chalcone in a cell-free protein crude extract to be observed.

[2] = Activity measurements for determination of the pH optimum of CHI; format: biochemical
From the text: as §1, §2

[3] = substrate: O=C(/C=C/c1ccc(O)cc1)c1c(O)cc(O)cc1O; test: Characterisation of the enzyme activity of the CHI following expression of the vector pET28b_CHI in E. coli; format: biochemical, Eubacterium ramulus DSM 16296; details: other: CHI expressed from pET28b_CHI in E. coli; substrate not given
From the text: Following expression of for example pET28b_CHI in E. coli (see above) CHI can be established both in the soluble and in the insoluble fractions.
Following purification with for example anion exchange chromatography, hydrophobic interaction chromatography, size exclusion chromatography and/or Resource Q purification the CHI can be isolated for characterization (FIG. 5 provides examples of the results of the individual purification steps following expression of the vector pET28b_CHI in E. coli).
The values in the table in Table 6 show (further) results of the chalcone isomerase activity of the expressed CHI, obtained by photometric determination (at 368 nm) in relation to the degradation of naringenin chalcone (to form […]).
as §2

[4] = Temperature stability of CHI; format: biochemical
From the text: as §1, §2

B1: Eubacterium ramulus DSM 16296 chalcone isomerase (CHI), wild type, SEQ ID NO:3 (Eubacterium ramulus) (protein)
chain: MADFKFEPMRSLIYVDCVSEDYRPKLQRWIYKVHIPDSISQFEPYVTKYAFYPSFPIPPQGDRFGYARMQLTEHHWLVSDLDPRLEIKAIAETFPMDVLVWQGQIPAAAHTDAQIDSDGDAGNAARKSNNAEGNPFIFAFLPMWWEKDLKGKGRTIEDGANYRFNMTIGFPEGVDKAEGEKWLFEKVVPILQAAPECTRVLASAVKKDINGCVMDWVLEIWFENQSGWYKVMVDDMKALEKPSWAQQDAFPFLKPYHNVCSAAVADYTPSNNLANYRGYITMR
Work on B1 yielded a Spec. activity ([1]; 30° C.) of 373.47 U/mg, a Spec. activity ([1]; 37° C.) of 795.04 U/mg and a Spec. activity ([1]; 40° C.) of 887.73 U/mg. The Spec. activity ([1]; 45° C.) was 1133.38 U/mg, the Spec. activity ([1]; 50° C.) was 748.66 U/mg and the Spec. activity ([1]; RT (23° C.)) was 158.39 U/mg. It also gave a Spec. activity ([2]; pH value 6.13) of 82.07 U/mg, a Spec. activity ([2]; pH value 6.35) of 163.43 U/mg and a Spec. activity ([2]; pH value 6.4) of 177.59 U/mg. For the same molecule, the Spec. activity ([2]; pH value 6.55) was 169.79 U/mg, the Spec. activity ([2]; pH value 6.8) was 185.86 U/mg and the Spec. activity ([2]; pH value 6.93) was 175.37 U/mg. For the same molecule, the Spec. activity ([2]; pH value 7.12) was 174.86 U/mg, the Spec. activity ([2]; pH value 7.45) was 173.01 U/mg and the Spec. activity ([2]; pH value 7.7) was 168.79 U/mg. The Spec. activity ([2]; pH value 8) was 152.55 U/mg, the Km [3] was 36.83 µM and the Vmax [3] was 107 µmol/min/mg. The kcat [3] was 417 s⁻¹, the kcat/Km [3] was 1.13e+07 M⁻¹ s⁻¹ and the Spec. activity ([4]; 25° C., 0 h) was 188.56 U/mg. It also gave a Spec. activity ([4]; 25° C., 0.5 h) of 136.70 U/mg, a Spec. activity ([4]; 25° C., 1 h) of 141.10 U/mg and a Spec. activity ([4]; 25° C., 2 h) of 152.08 U/mg. The Spec. activity ([4]; 25° C., 4 h) was 152.48 U/mg, the Spec. activity ([4]; 25° C., 6 h) was 146.46 U/mg and the Spec. activity ([4]; 25° C., 24 h) was 116.37 U/mg. The Spec. activity ([4]; 30° C., 0 h) was 188.56 U/mg, the Spec. activity ([4]; 30° C., 0.5 h) was 169.66 U/mg and the Spec. activity ([4]; 30° C., 1 h) was 158.01 U/mg. For the same molecule, the Spec. activity ([4]; 30° C., 2 h) was 154.62 U/mg, the Spec. activity ([4]; 30° C., 4 h) was 145.77 U/mg and the Spec. activity ([4]; 30° C., 6 h) was 147.18 U/mg. It also gave a Spec. activity ([4]; 30° C., 24 h) of 119.96 U/mg, a Spec. activity ([4]; 37° C., 0 h) of 188.56 U/mg and a Spec. activity ([4]; 37° C., 0.5 h) of 155.20 U/mg. For the same molecule, the Spec. activity ([4]; 37° C., 1 h) was 164.39 U/mg, the Spec. activity ([4]; 37° C., 2 h) was 156.17 U/mg and the Spec. activity ([4]; 37° C., 4 h) was 156.84 U/mg. The Spec. activity ([4]; 37° C., 6 h) was 156.21 U/mg, the Spec. activity ([4]; 37° C., 24 h) was 93.93 U/mg and the Spec. activity ([4]; 41° C., 0 h) was 188.56 U/mg. The Spec. activity ([4]; 41° C., 0.5 h) was 151.96 U/mg, the Spec. activity ([4]; 41° C., 1 h) was 154.22 U/mg and the Spec. activity ([4]; 41° C., 2 h) was 149.12 U/mg. It also gave a Spec. activity ([4]; 41° C., 4 h) of 146.59 U/mg, a Spec. activity ([4]; 41° C., 6 h) of 149.39 U/mg and a Spec. activity ([4]; 41° C., 24 h) of 93.30 U/mg. It also gave a Spec. activity ([4]; 44° C., 0 h) of 188.56 U/mg, a Spec. activity ([4]; 44° C., 0.5 h) of 158.12 U/mg and a Spec. activity ([4]; 44° C., 1 h) of 150.15 U/mg. For the same molecule, the Spec. activity ([4]; 44° C., 2 h) was 129.07 U/mg, the Spec. activity ([4]; 44° C., 4 h) was 115.07 U/mg and the Spec. activity ([4]; 44° C., 6 h) was 83.35 U/mg. It also gave a Spec. activity ([4]; 50° C., 0 h) of 188.56 U/mg, a Spec. activity ([4]; 50° C., 0.5 h) of 50.49 U/mg and a Spec. activity ([4]; 50° C., 1 h) of 3.05 U/mg. For the same molecule, the Spec. activity ([4]; 50° C., 2 h) was 2.35 U/mg, the Spec. activity ([4]; RT (23° C.), 0 h) was 188.56 U/mg and the Spec. activity ([4]; RT (23° C.), 0.5 h) was 145.67 U/mg. It also gave a Spec. activity ([4]; RT (23° C.), 1 h) of 148.67 U/mg, a Spec. activity ([4]; RT (23° C.), 2 h) of 144.05 U/mg and a Spec. activity ([4]; RT (23° C.), 4 h) of 146.39 U/mg. The Spec. activity ([4]; RT (23° C.), 6 h) was 141.06 U/mg and the Spec. activity ([4]; RT (23° C.), 24 h) was 125.68 U/mg.
